The target of data set [1] is hMIGA2_(long)-6xhis (human) (UniProt Q7L4E1). Put plainly: native MS.
The data set “SEC” deals with the molecule itself. As to the kind of experiment: SEC.

By stoichiometry N is commonly meant the number of molecules, sites or subunits per partner or assembly. “hMIGA2_(long)-6xhis (from UniProt Q7L4E1 170-593) (domain or fragment)” gave a stoichiometry N in data set [1] of 2.

B1: CeMIGA2_(long), C. elegans MIGA (106-496) (domain or fragment, UniProt Q21096 106-496, looked up)
chain: SMNPIEADITSGQELCTELRKTIEKVHHNLEMVKNRSSKDMERSIKIEGILKGLKQVEDEIVLLVPQMEDFRDDNMEFYSVSGGSGYAGSVRTGRSRTLSVLSDDSFRSAVEEFACDIDDIDFVSDAANLDKNELRFLDEGMQAALNGEVKYRKSRMEFCKCDSETDFAAKLYCVRQALTNALKDEHKRVWLAKCGRTLLADFIRHTKQDPVKFFNAYDEMLEYVSNDRNEEQLRQDVEGRGVCETGFYDVAIDFIILDAFEDLKSPPSAVYSVTKNYFMSMSMKYSTLNTIIWSIIKSKRQRLKNPDGFIAKFYNISETVMPAITLGFLGTDERLGELCQYFKEQVVQFVLDVFNTQKVCYRSLEEMSEDVWIVMRNRLEAVQTRMSNEL
In the case of B1, the “stoichiometry N” value in “SEC” is 2.

Values taken from paper doi:10.1101/2022.07.08.499339 (bioRxiv, 2022).
